# Laboratory results: patent US20110239311
# System: GST-NR2F6 fusion protein, wild-type, full-length (purified recombinant)
# Sequence (chain, as listed by the source): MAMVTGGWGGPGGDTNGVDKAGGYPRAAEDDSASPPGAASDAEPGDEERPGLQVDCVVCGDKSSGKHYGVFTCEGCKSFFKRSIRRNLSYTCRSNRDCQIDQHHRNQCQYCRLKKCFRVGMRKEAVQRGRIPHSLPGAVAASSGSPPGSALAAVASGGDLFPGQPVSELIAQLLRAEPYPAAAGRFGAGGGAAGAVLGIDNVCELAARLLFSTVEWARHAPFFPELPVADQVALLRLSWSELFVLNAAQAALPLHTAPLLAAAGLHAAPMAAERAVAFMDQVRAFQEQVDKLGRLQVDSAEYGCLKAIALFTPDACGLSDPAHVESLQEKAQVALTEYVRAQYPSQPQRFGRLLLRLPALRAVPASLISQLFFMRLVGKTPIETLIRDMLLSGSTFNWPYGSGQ
protein,measurement,value
"recombinant PKCzeta (enzyme, UniProt Q05513 1-592, looked up, species assumed) Protein kinase C zeta type: MPSRTGPKMEGSGGRVRLKAHYGGDIFITSVDAATTFEELCEEVRDMCRLHQQHPLTLKWVDSEGDPCTVSSQMELEEAFRLARQCRDEGLIIHVFPSTPEQPGLPCPGEDKSIYRRGARRWRKLYRANGHLFQAKRFNRRAYCGQCSERIWGLARQGYRCINCKLLVHKRCHGLVPLTCRKHMDSVMPSQEPPVDDKNEDADLPSEETDGIAYISSSRKHDSIKDDSEDLKPVIDGMDGIKISQGLGLQDFDLIRVIGRGSYAKVLLVRLKKNDQIYAMKVVKKELVHDDEDIDWVQTEKHVFEQASSNPFLVGLHSCFQTTSRLFLVIEYVNGGDLMFHMQRQRKLPEEHARFYAAEICIALNFLHERGIIYRDLKLDNVLLDADGHIKLTDYGMCKEGLGPGDTTSTFCGTPNYIAPEILRGEEYGFSVDWWALGVLMFEMMAGRSPFDIITDNPDMNTEDYLFQVILEKPIRIPRFLSVKASHVLKGFLNKDPKERLGCRPQTGFSDIKSHAFFRSIDWDLLEKKQALPPFQPQITDDYGLDNFDTQFTSEPVQLTPDDEDAIKRIDQSEFEGFEYINPLLLSTEESV",in vitro protein kinase assay (32P incorporation into GST-NR2F6),(but not PKCzeta or PKA) were able to phosphorylate recombinant NR2F6 in vitro
